# Measurements as given in patent publication US20140348747A1.
# Values joined by “and” are separate entries in the source; they are usually repeats but may differ in a detail not shown here. Equal entries are not always repeated. Where two headings read alike, the source gives them in different places.
# T1: P157H
# T1 chain: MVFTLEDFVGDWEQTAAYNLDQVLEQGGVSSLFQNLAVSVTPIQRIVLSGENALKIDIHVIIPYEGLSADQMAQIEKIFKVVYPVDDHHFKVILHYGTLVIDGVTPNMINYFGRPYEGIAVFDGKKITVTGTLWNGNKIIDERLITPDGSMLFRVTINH
# T2: H93P
# T2 chain: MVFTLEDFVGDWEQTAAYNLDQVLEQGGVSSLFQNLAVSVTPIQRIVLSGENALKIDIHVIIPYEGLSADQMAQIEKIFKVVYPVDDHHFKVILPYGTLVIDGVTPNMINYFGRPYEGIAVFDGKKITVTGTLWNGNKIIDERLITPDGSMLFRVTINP
# T3: L46R
# T3 chain: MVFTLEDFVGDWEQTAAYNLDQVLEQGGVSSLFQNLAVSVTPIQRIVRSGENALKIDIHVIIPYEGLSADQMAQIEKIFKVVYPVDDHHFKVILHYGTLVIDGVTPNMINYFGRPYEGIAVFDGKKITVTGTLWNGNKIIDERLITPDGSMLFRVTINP
# T4: wild-type non-luminescent polypeptide (WT fragment of residues 1-156 of NanoLuc)
# T4 chain: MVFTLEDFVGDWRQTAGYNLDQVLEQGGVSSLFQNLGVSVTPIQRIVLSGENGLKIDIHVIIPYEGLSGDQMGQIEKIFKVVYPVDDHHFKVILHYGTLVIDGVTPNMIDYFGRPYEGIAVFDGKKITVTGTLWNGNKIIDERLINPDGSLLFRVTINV
# T5: F31L
# T5 chain: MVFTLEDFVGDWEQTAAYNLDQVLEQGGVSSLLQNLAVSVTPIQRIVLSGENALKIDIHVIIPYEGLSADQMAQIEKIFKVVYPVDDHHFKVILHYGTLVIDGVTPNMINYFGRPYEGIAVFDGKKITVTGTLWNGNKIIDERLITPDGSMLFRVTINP
# T6: D2
# T6 chain: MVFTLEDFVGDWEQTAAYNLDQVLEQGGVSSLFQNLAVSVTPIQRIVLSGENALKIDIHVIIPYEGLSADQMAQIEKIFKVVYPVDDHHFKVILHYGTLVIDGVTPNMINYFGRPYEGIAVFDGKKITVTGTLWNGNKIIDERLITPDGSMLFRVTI
# T7: F31L+H93P
# T7 chain: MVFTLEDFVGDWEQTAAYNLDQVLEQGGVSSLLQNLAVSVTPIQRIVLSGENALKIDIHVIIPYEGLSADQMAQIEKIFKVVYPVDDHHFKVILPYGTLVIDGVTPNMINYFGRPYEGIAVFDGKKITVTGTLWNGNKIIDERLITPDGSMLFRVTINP
# T8: NLpoly 11S (12-A51T)
# T8 chain: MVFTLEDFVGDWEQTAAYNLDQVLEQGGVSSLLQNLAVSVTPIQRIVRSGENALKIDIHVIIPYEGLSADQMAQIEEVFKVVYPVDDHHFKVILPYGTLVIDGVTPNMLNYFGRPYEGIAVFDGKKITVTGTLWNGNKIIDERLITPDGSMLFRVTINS
# T9: A51T
# T9 chain: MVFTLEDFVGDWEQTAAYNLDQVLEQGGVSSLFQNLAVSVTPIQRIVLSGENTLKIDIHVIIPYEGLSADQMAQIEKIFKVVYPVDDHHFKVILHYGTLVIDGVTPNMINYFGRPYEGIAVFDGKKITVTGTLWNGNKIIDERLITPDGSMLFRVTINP
# T10: VTGWR
# T10 chain: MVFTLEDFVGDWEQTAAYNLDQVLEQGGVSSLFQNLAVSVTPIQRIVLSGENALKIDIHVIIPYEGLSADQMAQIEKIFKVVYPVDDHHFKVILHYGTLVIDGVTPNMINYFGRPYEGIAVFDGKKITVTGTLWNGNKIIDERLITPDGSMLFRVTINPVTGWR
# T11: V58A
# T11 chain: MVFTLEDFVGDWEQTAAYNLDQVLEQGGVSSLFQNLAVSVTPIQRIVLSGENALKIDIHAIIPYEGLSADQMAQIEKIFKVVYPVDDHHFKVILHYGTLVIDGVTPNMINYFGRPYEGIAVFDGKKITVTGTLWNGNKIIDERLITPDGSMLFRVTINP
# T12: P157S
# T12 chain: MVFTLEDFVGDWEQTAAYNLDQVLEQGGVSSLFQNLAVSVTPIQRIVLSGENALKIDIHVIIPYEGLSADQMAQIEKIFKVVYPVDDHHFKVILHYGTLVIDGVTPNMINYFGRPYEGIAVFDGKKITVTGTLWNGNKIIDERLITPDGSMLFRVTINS
# T13: VTGW
# T13 chain: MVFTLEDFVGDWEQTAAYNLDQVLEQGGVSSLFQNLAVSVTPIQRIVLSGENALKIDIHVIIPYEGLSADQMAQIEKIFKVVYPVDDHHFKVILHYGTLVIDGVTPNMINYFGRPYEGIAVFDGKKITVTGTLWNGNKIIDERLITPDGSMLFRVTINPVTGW
# T14: H57R
# T14 chain: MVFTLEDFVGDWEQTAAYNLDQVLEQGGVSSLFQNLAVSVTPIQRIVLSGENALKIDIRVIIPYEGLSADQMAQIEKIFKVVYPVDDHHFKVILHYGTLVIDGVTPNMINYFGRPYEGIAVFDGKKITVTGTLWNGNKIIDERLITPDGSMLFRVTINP
# What was measured:
# Details in all cases: modification not given
# [1] = target: VT
# [2] = target: T1, P157H
# [3] = target: 5P+V
# [4] = target: T2, H93P
# [5] = target: T3, L46R
# [6] = target: T4, wild-type non-luminescent polypeptide …
# [7] = target: T4, wild-type non-luminescent polypeptide …
# [8] = target: T4, wild-type non-luminescent polypeptide …
# [9] = target: T5, F31L
# [10] = target: VA
# [11] = target: AA
# [12] = target: T6, D2
# [13] = target: 5P+VT
# [14] = target: T7, F31L+H93P
# [15] = target: T8, NLpoly 11S (12-A51T)
# [16] = target: T9, A51T
# [17] = target: T10, VTGWR
# [18] = target: T11, V58A
# [19] = target: T12, P157S
# [20] = target: 5P+VTG
# [21] = target: T13, VTGW
# [22] = target: T14, H57R
binder,measurement,setting,value
NVSGWRLFKKISN [NLpep78],Kd,[1],0.0131 µM
same,Kd,[2],0.0179 µM
same,Kd,[3],0.0249 µM
same,Kd,[4],0.024 µM
same,Kd,[5],0.0184 µM
same,Kd,[6],1750 µM
same,Kd,[7],0.341 µM and 1.05 µM
same,Kd,[8],0.784 µM
same,Kd,[9],0.0148 µM
same,Kd,[10],0.0146 µM
same,Kd,[11],0.0113 µM
same,Kd,[12],0.0102 µM
same,Kd,[13],0.0254 µM
same,Kd,[14],0.0172 µM
same,Kd,[15],26 µM
same,Kd,[16],0.0188 µM
same,Kd,[17],0.0133 µM
same,Kd,[18],0.0152 µM
same,Kd,[19],0.0152 µM
same,Kd,[20],0.026 µM
same,Kd,[21],0.013 µM
same,Kd,[22],0.0141 µM
